Experimental data reported in the supplement of paper PMC5998384.

Tests used:
HeLa Kyoto [1] = experiment: thermal stability score vs G1/S (z-score of summed log2 fold changes over temperatures); higher = more thermally stable than in G1/S
HeLa Kyoto [2] = experiment: solubility change mitosis vs G1/S (difference of NP-40 vs SDS log2 ratios) (log2 ratio difference); higher = more soluble in mitosis
HeLa Kyoto [3] = experiment: melting temperature (median over replicates), in situ; higher = more thermally stable
HeLa Kyoto [4] = experiment: solubility in G1/S (NP-40 vs SDS abundance) (log2 ratio); higher = more soluble; details: cell cycle stage: G1/S
[5] = cell cycle stage: early G1 (4.5 h after nocodazole release)
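Wherever melting temperature (median over replicates), in situ is given: HeLa Kyoto cells synchronized by double thymidine or nocodazole block, proteins quantified by TMT10plex mass spectrometry, three independent biological replicates.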
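Wherever solubility change mitosis vs G1/S (difference of NP-40 vs SDS log2 ratios) is given: synchronized HeLa Kyoto cells (double thymidine block for G1/S, nocodazole release for mitosis), protein amounts in NP-40 versus SDS lysates quantified by mass spectrometry, three biological replicates.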
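Wherever solubility in G1/S (NP-40 vs SDS abundance) is given: HeLa Kyoto cells arrested at G1/S by double thymidine block, proteins quantified by TMT10plex mass spectrometry in mild NP-40 versus SDS extracts, three biological replicates.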
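Wherever thermal stability score vs G1/S (z-score of summed log2 fold changes over temperatures) is given: synchronized HeLa Kyoto cells, proteins quantified by TMT10plex mass spectrometry, three biological replicates, mitosis taken 0.5 h after nocodazole release, G1/S directly after double thymidine block.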

Sequence: MSVSLVVIRLELAEHSPVPAGFGFSAAAGEMSDEEIKKTTLASAVACLEGKSPGEKVAIIHQHLGRREMTDVIIETMKSNPDELKTTVEERKSSEASPTAQRSKDHSKECINAAPDSPSKQLPDQISFFSGNPSVEIVHGIMHLYKTNKMTSLKEDVRRSAMLCILTVPAAMTSHDLMKFVAPFNEVIEQMKIIRDSTPNQYMVLIKFRAQADADSFYMTCNGRQFNSIEDDVCQLVYVERAEVLKSEDGASLPVMDLTELPKCTVCLERMDESVNGILTTLCNHSFHSQCLQRWDDTTCPVCRYCQTPEPVEENKCFECGVQENLWICLICGHIGCGRYVSRHAYKHFEETQHTYAMQLTNHRVWDYAGDNYVHRLVASKTDGKIVQYECEGDTCQEEKIDALQLEYSYLLTSQLESQRIYWENKIVRIEKDTAEEINNMKTKFKETIEKCDNLEHKLNDLLKEKQSVERKCTQLNTKVAKLTNELKEEQEMNKCLRANQVLLQNKLKEEERVLKETCDQKDLQITEIQEQLRDVMFYLETQQKINHLPAETRQEIQEGQINIAMASASSPASSGGSGKLPSRKGRSKRGK [BRAP]
- thermal stability score (HeLa Kyoto [1]; [5]): 0.558
- thermal stability score (HeLa Kyoto [1]; cell cycle stage: mitosis): 1.83
- solubility change mitosis (log2) (HeLa Kyoto [2]): -0.181
- melting temperature (HeLa Kyoto [3]; cell cycle stage: G1/S): 50.3 °C
- melting temperature (HeLa Kyoto [3]; cell cycle stage: mitosis): 50.2 °C
- solubility in G1/S (log2) (HeLa Kyoto [4]): 0.1

Sequence: MSVVGLDVGSQSCYIAVARAGGIETIANEFSDRCTPSVISFGSKNRTIGVAAKNQQITHANNTVSNFKRFHGRAFNDPFIQKEKENLSYDLVPLKNGGVGIKVMYMGEEHLFSVEQITAMLLTKLKETAENSLKKPVTDCVISVPSFFTDAERRSVLDAAQIVGLNCLRLMNDMTAVALNYGIYKQDLPSLDEKPRIVVFVDMGHSAFQVSACAFNKGKLKVLGTAFDPFLGGKNFDEKLVEHFCAEFKTKYKLDAKSKIRALLRLYQECEKLKKLMSSNSTDLPLNIECFMNDKDVSGKMNRSQFEELCAELLQKIEVPLYSLLEQTHLKVEDVSAVEIVGGATRIPAVKERIAKFFGKDISTTLNADEAVARGCALQCAILSPAFKVREFSVTDAVPFPISLIWNHDSEDTEGVHEVFSRNHAAPFSKVLTFLRRGPFELEAFYSDPQGVPYPEAKIGRFVVQNVSAQKDGEKSRVKVKVRVNTHGIFTISTASMVEKVPTEENEMSSEADMECLNQRPPENPDTDKNVQQDNSEAGTQPQVQTDAQQTSQSPPSPELTSEENKIPDADKANEKKVDQPPEAKKPKIKVVNVELPIEANLVWQLGKDLLNMYIETEGKMIMQDKLEKERNDAKNAVEEYVYEFRDKLCGPYEKFICEQDHQNFLRLLTETEDWLYEEGEDQAKQAYVDKLEELMKIGTPVKVRFQEAEERPKMFEELGQRLQHYAKIAADFRNKDEKYNHIDESEMKKVEKSVNEVMEWMNNVMNAQAKKSLDQDPVVRAQEIKTKIKELNNTCEPVVTQPKPKIESPKLERTPNGPNIDKKEEDLEDKNNFGAEPPHQNGECYPNEKNSVNMDLD [HSPH1]
- thermal stability score (HeLa Kyoto [1]; [5]): 1.34
- thermal stability score (HeLa Kyoto [1]; cell cycle stage: mitosis): 1.52
- solubility change mitosis (log2) (HeLa Kyoto [2]): -0.0593
- melting temperature (HeLa Kyoto [3]; cell cycle stage: G1/S): 50.2 °C
- melting temperature (HeLa Kyoto [3]; cell cycle stage: mitosis): 49.7 °C
- solubility in G1/S (log2) (HeLa Kyoto [4]): 0.203

Sequence: MSWFNASQLSSFAKQALSQAQKSIDRVLDIQEEEPSIWAETIPYGEPGISSPVSGGWDTSTWGLKSNTEPQSPPIASPKAITKPVRRTVVDESENFFSAFLSPTDVQTIQKSPVVSKPPAKSQRPEEEVKSSLHESLHIGQSRTPETTESQVKDSSLCVSGETLAAGTSSPKTEGKHEETVNKESDMKVPTVSLKVSESVIDVKTTMESISNTSTQSLTAETKDIALEPKEQKHEDRQSNTPSPPVSTFSSGTSTTSDIEVLDHESVISESSASSRQETTDSKSSLHLMQTSFQLLSASACPEYNRLDDFQKLTESCCSSDAFERIDSFSVQSLDSRSVSEINSDDELSGKGYALVPIIVNSSTPKSKTVESAEGKSEEVNETLVIPTEEAEMEESGRSATPVNCEQPDILVSSTPINEGQTVLDKVAEQCEPAESQPEALSEKEDVCKTVEFLNEKLEKREAQLLSLSKEKALLEEAFDNLKDEMFRVKEESSSISSLKDEFTQRIAEAEKKVQLACKERDAAKKEIKNIKEELATRLNSSETADLLKEKDEQIRGLMEEGEKLSKQQLHNSNIIKKLRAKDKENENMVAKLNKKVKELEEELQHLKQVLDGKEEVEKQHRENIKKLNSMVERQEKDLGRLQVDMDELEEKNRSIQAALDSAYKELTDLHKANAAKDSEAQEAALSREMKAKEELSAALEKAQEEARQQQETLAIQVGDLRLALQRTEQAAARKEDYLRHEIGELQQRLQEAENRNQELSQSVSSTTRPLLRQIENLQATLGSQTSSWEKLEKNLSDRLGESQTLLAAAVERERAATEELLANKIQMSSMESQNSLLRQENSRFQAQLESEKNRLCKLEDENNRYQVELENLKDEYVRTLEETRKEKTLLNSQLEMERMKVEQERKKAIFTQETIKEKERKPFSVSSTPTMSRSSSISGVDMAGLQTSFLSQDESHDHSFGPMPISANGSNLYDAVRMGAGSSIIENLQSQLKLREGEITHLQLEIGNLEKTRSIMAEELVKLTNQNDELEEKVKEIPKLRTQLRDLDQRYNTILQMYGEKAEEAEELRLDLEDVKNMYKTQIDELLRQSLS [TMF1]
- thermal stability score (HeLa Kyoto [1]; [5]): -2.48
- thermal stability score (HeLa Kyoto [1]; cell cycle stage: mitosis): -0.992
- solubility change mitosis (log2) (HeLa Kyoto [2]): -0.065
- melting temperature (HeLa Kyoto [3]; cell cycle stage: G1/S): 54.5 °C
- melting temperature (HeLa Kyoto [3]; cell cycle stage: mitosis): 54.4 °C
- solubility in G1/S (log2) (HeLa Kyoto [4]): 0.0833

Sequence: MSWFVDLAGKAEDLLNRVDQGAATALSRKDNASNIYSKNTDYTELHQQNTDLIYQTGPKSTYISSAADNIRNQKATILAGTANVKVGSRTPVEASHPVENASVPRPSSHFVRRKKSEPDDELLFDFLNSSQKEPTGRVEIRKEKGKTPVFQSSQTSSVSSVNPSVTTIKTIEENSFGSQTHEAASNSDSSHEGQEESSKENVSSNAACPDHTPTPNDDGKSHELSNLRLENQLLRNEVQSLNQEMASLLQRSKETQEELNKARARVEKWNADHSKSDRMTRGLRAQVDDLTEAVAAKDSQLAVLKVRLQEADQLLSTRTEALEALQSEKSRIMQDQSEGNSLQNQALQTFQERLHEADATLKREQESYKQMQSEFAARLNKVEMERQNLAEAITLAERKYSDEKKRVDELQQQVKLYKLNLESSKQELIDYKQKATRILQSKEKLINSLKEGSGFEGLDSSTASSMELEELRHEKEMQREEIQKLMGQIHQLRSELQDMEAQQVNEAESAREQLQDLHDQIAGQKASKQELETELERLKQEFHYIEEDLYRTKNTLQSRIKDRDEEIQKLRNQLTNKTLSNSSQSELENRLHQLTETLIQKQTMLESLSTEKNSLVFQLERLEQQMNSASGSSSNGSSINMSGIDNGEGTRLRNVPVLFNDTETNLAGMYGKVRKAASSIDQFSIRLGIFLRRYPIARVFVIIYMALLHLWVMIVLLTYTPEMHHDQPYGK [GOLGA5]
- thermal stability score (HeLa Kyoto [1]; [5]): 1.32
- thermal stability score (HeLa Kyoto [1]; cell cycle stage: mitosis): 2.34
- solubility change mitosis (log2) (HeLa Kyoto [2]): -0.148
- melting temperature (HeLa Kyoto [3]; cell cycle stage: G1/S): 52.7 °C
- melting temperature (HeLa Kyoto [3]; cell cycle stage: mitosis): 53 °C
- solubility in G1/S (log2) (HeLa Kyoto [4]): 0.284

Sequence: MSWLFGINKGPKGEGAGPPPPLPPAQPGAEGGGDRGLGDRPAPKDKWSNFDPTGLERAAKAARELEHSRYAKDALNLAQMQEQTLQLEQQSKLKEYEAAVEQLKSEQIRAQAEERRKTLSEETRQHQARAQYQDKLARQRYEDQLKQQQLLNEENLRKQEESVQKQEAMRRATVEREMELRHKNEMLRVEAEARARAKAERENADIIREQIRLKAAEHRQTVLESIRTAGTLFGEGFRAFVTDWDKVTATVAGLTLLAVGVYSAKNATLVAGRFIEARLGKPSLVRETSRITVLEALRHPIQVSRRLLSRPQDALEGVVLSPSLEARVRDIAIATRNTKKNRSLYRNILMYGPPGTGKTLFAKKLALHSGMDYAIMTGGDVAPMGREGVTAMHKLFDWANTSRRGLLLFVDEADAFLRKRATEKISEDLRATLNAFLYRTGQHSNKFMLVLASNQPEQFDWAINDRINEMVHFDLPGQEERERLVRMYFDKYVLKPATEGKQRLKLAQFDYGRKCSEVARLTEGMSGREIAQLAVSWQATAYASEDGVLTEAMMDTRVQDAVQQHQQKMCWLKAEGPGRGDEPSPS [ATAD3A]
- thermal stability score (HeLa Kyoto [1]; [5]): -0.608
- thermal stability score (HeLa Kyoto [1]; cell cycle stage: mitosis): 0.271
- solubility change mitosis (log2) (HeLa Kyoto [2]): -0.0269
- melting temperature (HeLa Kyoto [3]; cell cycle stage: G1/S): 50.5 °C
- melting temperature (HeLa Kyoto [3]; cell cycle stage: mitosis): 51 °C
- solubility in G1/S (log2) (HeLa Kyoto [4]): -0.0262

Sequence: MSWVQATLLARGLCRAWGGTCGAALTGTSISQVPRRLPRGLHCSAAAHSSEQSLVPSPPEPRQRPTKALVPFEDLFGQAPGGERDKASFLQTVQKFAEHSVRKRGHIDFIYLALRKMREYGVERDLAVYNQLLNIFPKEVFRPRNIIQRIFVHYPRQQECGIAVLEQMENHGVMPNKETEFLLIQIFGRKSYPMLKLVRLKLWFPRFMNVNPFPVPRDLPQDPVELAMFGLRHMEPDLSARVTIYQVPLPKDSTGAADPPQPHIVGIQSPDQQAALARHNPARPVFVEGPFSLWLRNKCVYYHILRADLLPPEEREVEETPEEWNLYYPMQLDLEYVRSGWDNYEFDINEVEEGPVFAMCMAGAHDQATMAKWIQGLQETNPTLAQIPVVFRLAGSTRELQTSSAGLEEPPLPEDHQEEDDNLQRQQQGQS [ECSIT]
- thermal stability score (HeLa Kyoto [1]; [5]): 2.4
- thermal stability score (HeLa Kyoto [1]; cell cycle stage: mitosis): 3.63
- solubility change mitosis (log2) (HeLa Kyoto [2]): -0.1
- melting temperature (HeLa Kyoto [3]; cell cycle stage: G1/S): 54.4 °C
- melting temperature (HeLa Kyoto [3]; cell cycle stage: mitosis): 56.1 °C
- solubility in G1/S (log2) (HeLa Kyoto [4]): -0.0136

Sequence: MTCYRGFLLGSCCRVAGGRAAALRGPGAGGPAARPRLGGDGGGRRHLGQGQPRELAGCGSRADGGFRPSRVVVVAKTTRYEFEQQRYRYAELSEEDLKQLLALKGSSYSGLLERHHIHTKNVEHIIDSLRNEGIEVRLVKRREYDEETVRWADAVIAAGGDGTMLLAASKVLDRLKPVIGVNTDPERSEGHLCLPVRYTHSFPEALQKFYRGEFRWLWRQRIRLYLEGTGINPVPVDLHEQQLSLNQHNRALNIERAHDERSEASGPQLLPVRALNEVFIGESLSSRASYYEISVDDGPWEKQKSSGLNLCTGTGSKAWSFNINRVATQAVEDVLNIAKRQGNLSLPLNRELVEKVTNEYNESLLYSPEEPKILFSIREPIANRVFSSSRQRCFSSKVCVRSRCWDACMVVDGGTSFEFNDGAIASMMINKEDELRTVLLEQ [NADK2]
- thermal stability score (HeLa Kyoto [1]; [5]): -0.37
- thermal stability score (HeLa Kyoto [1]; cell cycle stage: mitosis): 2.77
- solubility change mitosis (log2) (HeLa Kyoto [2]): -0.121
- melting temperature (HeLa Kyoto [3]; cell cycle stage: G1/S): 55.3 °C
- melting temperature (HeLa Kyoto [3]; cell cycle stage: mitosis): 55.5 °C
- solubility in G1/S (log2) (HeLa Kyoto [4]): 0.0487

Sequence: MTDGILGKAATMEIPIHGNGEARQLPEDDGLEQDLQQVMVSGPNLNETSIVSGGYGGSGDGLIPTGSGRHPSHSTTPSGPGDEVARGIAGEKFDIVKKWGINTYKCTKQLLSERFGRGSRTVDLELELQIELLRETKRKYESVLQLGRALTAHLYSLLQTQHALGDAFADLSQKSPELQEEFGYNAETQKLLCKNGETLLGAVNFFVSSINTLVTKTMEDTLMTVKQYEAARLEYDAYRTDLEELSLGPRDAGTRGRLESAQATFQAHRDKYEKLRGDVAIKLKFLEENKIKVMHKQLLLFHNAVSAYFAGNQKQLEQTLQQFNIKLRPPGAEKPSWLEEQ [ARFIP2]
- thermal stability score (HeLa Kyoto [1]; [5]): -0.945
- thermal stability score (HeLa Kyoto [1]; cell cycle stage: mitosis): -2.87
- solubility change mitosis (log2) (HeLa Kyoto [2]): 0.0365
- melting temperature (HeLa Kyoto [3]; cell cycle stage: G1/S): 51.1 °C
- melting temperature (HeLa Kyoto [3]; cell cycle stage: mitosis): 50.9 °C
- solubility in G1/S (log2) (HeLa Kyoto [4]): 0.602
